Results published in patent US20210380703A1.

target: human Fc (human); experiment: ELISA, negative control

optical density | Binder
0.315 OD | 371_G09 (antibody, V domains shown) VH: EVQLLESGGGLVQPGGSLRLSCAASGFTFSSYSMNWVRQAPGKGLEWVANINYNGGYTGYADSVKGRFTISRDNSKNTLYLQMNSLRAEDTAVYYCARGANWHDTALDYWGQGTLVTVSS VL: DIQMTQSPSSLSASVGDRVTITCRASQSILSYLNWYQQKPGKAPKLVIYAATSRASGVPSRFSGSGSGTDFTLTISSLQPEDFATYYCQQSDSTPLTFGGGTKVEIK
0.309 OD | 371_H08 (antibody, V domains shown) VH: EVQLLESGGGLVQPGGSLRLSCAASGFTFSSYGMNWVRQAPGKGLEWVASINYNGGYKGYADSVKGRFTISRDNSKNTLYLQMNSLRAEDTAVYYCARGANWHDTHLDYWGQGTLVTVSS VL: DIQMTQSPSSLSASVGDRVTITCRASQSIISYVNWYQQKPGKAPKLVIYAVTSRASGVPSRFSGSGSGTDFTLTISSLQPEDFATYYCQQSYDTPLTFGGGTKVEIK
0.399 OD | 371_G11 (antibody, V domains shown) VH: EVQLLESGGGLVQPGGSLRLSCAASGFTFSSYGMNWVRQAPGKGLEWVSNINYNSGYTSYADSVKGRFTISRDNSKNTLYLQMNSLRAEDTAVYYCARGANWHDTALDYWGQGTLVTVSS VL: DIQMTQSPSSLSASVGDRVTITCRASQSILSYVNWYQQKPGKAPKLLIYAATSLASGVPSRFSGSGSGTDFTLTISSLQPEDFATYYCQQSYDSPLTFGGGTKVEIK
0.35 OD | 371_H04 (antibody, V domains shown) VH: EVQLLESGGGLVQPGGSLRLSCAASGFTFSSYGMNWVRQAPGKGLEWVSNINYNGGYTGYADSVKGRFTISRDNSKNTLYLQMNSLRAEDTAVYYCARGANWHDTALDYWGQGTLVTVSS VL: DIQMTQSPSSLSASVGDRVTITCRASQSILTYLNWYQQKPGKAPKLLIYAATSRASGVPSRFSGSGSGTDFTLTISSLQPEDFATYYCQQSYNSPLTFGGGTKVEIK
0.325 OD | 371_G04 (antibody, V domains shown) VH: EVQLLESGGGLVQPGGSLRLSCAASGFTFDSYSMNWVRQAPGKGLEWVSGINYNGGYKSYADSVKGRFTISRDNSKNTLYLQMNSLRAEDTAVYYCARGANWHDTALDYWGQGTLVTVSS VL: DIQMTQSPSSLSASVGDRVTITCRASQSILSYLNWYQQKPGKAPKLLIYAATSLHSGVPSRFSGSGSGTDFTLTISSLQPEDFATYYCQQSYESPLTFGGGTKVEIK
0.346 OD | 371_H06 (antibody, V domains shown) VH: EVQLLESGGGLVQPGGSLRLSCAASGFTFDSYGMNWVRQAPGKGLEWVSGINYNGGYTSYADSVKGRFTISRDNSKNTLYLQMNSLRAEDTAVYYCARGANWHDTALDYWGQGTLVTVSS VL: DIQMTQSPSSLSASVGDRVTITCRASQSISSYLNWYQQKPGKAPKLVIYAVTSRASGVPSRFSGSGSGTDFTLTISSLQPEDFATYYCQQSYDLPLTFGGGTKVEIK
0.321 OD | 371_H05 (antibody, V domains shown) VH: EVQLLESGGGLVQPGGSLRLSCAASGFTFSSYGMNWVRQAPGKGLEWVSGINYNSGYKSYADSVKGRFTISRDNSKNTLYLQMNSLRAEDTAVYYCARGANWHDTALDYWGQGTLVTVSS VL: DIQMTQSPSSLSASVGDRVTITCRASQSIISYLNWYQQKPGKAPKLLIYAATSLASGVPSRFSGSGSGTDFTLTISSLQPEDFATYYCQQSYSLPLTFGGGTKVEIK

More lines, now with the values behind:

Binder | optical density
371_B09 (antibody, V domains shown) VH: EVQLLESGGGLVQPGGSLRLSCAASGFTFSSYSMNWVRQAPGKGLEWVAGINYNSGYTGYADSVKGRFTISRDNSKNTLYLQMNSLRAEDTAVYYCARGANWHDTHLDYWGQGTLVTVSS VL: DIQMTQSPSSLSASVGDRVTITCRASQSILSYVNWYQQKPGKAPKLVIYATTSLASGVPSRFSGSGSGTDFTLTISSLQPEDFATYYCQQSYDTPLTFGGGTKVEIK | 0.292 OD
371_C12 (antibody, V domains shown) VH: EVQLLESGGGLVQPGGSLRLSCAASGFTFSSYSMNWVRQAPGKGLEWVAGINYNSGYKSYADSVKGRFTISRDNSKNTLYLQMNSLRAEDTAVYYCARGANWHDTHLDYWGQGTLVTVSS VL: DIQMTQSPSSLSASVGDRVTITCRASQSIVSYVNWYQQKPGKAPKLLIYAATSRASGVPSRFSGSGSGTDFTLTISSLQPEDFATYYCQQSYDTPLTFGGGTKVEIK | 0.544 OD
371_D02 (antibody, V domains shown) VH: EVQLLESGGGLVQPGGSLRLSCAASGFTFDDYSMNWVRQAPGKGLEWVAGINYNGGYKSYADSVKGRFTISRDNSKNTLYLQMNSLRAEDTAVYYCARGANWHDTALDYWGQGTLVTVSS VL: DIQMTQSPSSLSASVGDRVTITCRASQSIVTYLNWYQQKPGKAPKLLIYAATSRASGVPSRFSGSGSGTDFTLTISSLQPEDFATYYCQQSYDSPLTFGGGTKVEIK | 0.385 OD
371_G02 (antibody, V domains shown) VH: EVQLLESGGGLVQPGGSLRLSCAASGFTFDSYGMNWVRQAPGKGLEWVASINYNGGYTSYADSVKGRFTISRDNSKNTLYLQMNSLRAEDTAVYYCARGANWHDTHLDYWGQGTLVTVSS VL: DIQMTQSPSSLSASVGDRVTITCRASQSILSYLNWYQQKPGKAPKLLIYAATSRASGVPSRFSGSGSGTDFTLTISSLQPEDFATYYCQQSYDLPLTFGGGTKVEIK | 0.514 OD
371_C05 (antibody, V domains shown) VH: EVQLLESGGGLVQPGGSLRLSCAASGFTFSDYGMHWVRQAPGKGLEWVANINYNGGYTGYADSVKGRFTISRDNSKNTLYLQMNSLRAEDTAVYYCARGANWHDTALDYWGQGTLVTVSS VL: DIQMTQSPSSLSASVGDRVTITCRASQSILSYLNWYQQKPGKAPKLLIYAATSRASGVPSRFSGSGSGTDFTLTISSLQPEDFATYYCQQSYDSPLTFGGGTKVEIK | 0.269 OD
367_D11 (antibody, V domains shown) VH: EVQLLESGGGLVQPGGSLRLSCAASGFTFDSYGMHWVRQAPGKGLEWVSNINYNGGYKSYADSVKGRFTISRDNSKNTLYLQMNSLRAEDTAVYYCARAANWHDTALDYWGQGTLVTVSS VL: DIQMTQSPSSLSASVGDRVTITCRASQSIISYLNWYQQKPGKAPKLLIYAATSRASGVPSRFSGSGSGTDFTLTISSLQPEDFATYYCQQSYDSPLTFGGGTKVEIK | 0.304 OD
371_E10 (antibody, V domains shown) VH: EVQLLESGGGLVQPGGSLRLSCAASGFTFDSYSMNWVRQAPGKGLEWVAGINYNGGYTSYADSVKGRFTISRDNSKNTLYLQMNSLRAEDTAVYYCARGANWHDTALDYWGQGTLVTVSS VL: DIQMTQSPSSLSASVGDRVTITCRASQSISTYLNWYQQKPGKAPKLLIYAVTSRASGVPSRFSGSGSGTDFTLTISSLQPEDFATYYCQQSYNSPLTFGGGTKVEIK | 0.341 OD
371_D04 (antibody, V domains shown) VH: EVQLLESGGGLVQPGGSLRLSCAASGFTFDDYSMNWVRQAPGKGLEWVAGINYNGGYTGYADSVKGRFTISRDNSKNTLYLQMNSLRAEDTAVYYCARGANWHDTHLDYWGQGTLVTVSS VL: DIQMTQSPSSLSASVGDRVTITCRASQSIVSYVNWYQQKPGKAPKLLIYAATSLASGVPSRFSGSGSGTDFTLTISSLQPEDFATYYCQQSYENPLTFGGGTKVEIK | 0.276 OD
367_F06 (antibody, V domains shown) VH: EVQLLESGGGLVQPGGSLRLSCAASGFTFSSYGMNWVRQAPGKGLEWVSSINYNSGYTSYADSVKGRFTISRDNSKNTLYLQMNSLRAEDTAVYYCARAANWHDTALDYWGQGTLVTVSS VL: DIQMTQSPSSLSASVGDRVTITCRASQSISSYVNWYQQKPGKAPKLLIYAVTSRASGVPSRFSGSGSGTDFTLTISSLQPEDFATYYCQQSYDSPLTFGGGTKVEIK | 0.265 OD
371_F10 (antibody, V domains shown) VH: EVQLLESGGGLVQPGGSLRLSCAASGFTFDSYGMNWVRQAPGKGLEWVSGINYNSGYTSYADSVKGRFTISRDNSKNTLYLQMNSLRAEDTAVYYCARGANWHDTALDYWGQGTLVTVSS VL: DIQMTQSPSSLSASVGDRVTITCRASQSISSYLNWYQQKPGKAPKLVIYAVTSRASGVPSRFSGSGSGTDFTLTISSLQPEDFATYYCQQSYESPLTFGGGTKVEIK | 0.299 OD
371_E07 (antibody, V domains shown) VH: EVQLLESGGGLVQPGGSLRLSCAASGFTFDSYSMNWVRQAPGKGLEWVAGINYNGGYTSYADSVKGRFTISRDNSKNTLYLQMNSLRAEDTAVYYCARGANWHDTALDYWGQGTLVTVSS VL: DIQMTQSPSSLSASVGDRVTITCRASQSIISYLNWYQQKPGKAPKLLIYAATSLASGVPSRFSGSGSGTDFTLTISSLQPEDFATYYCQQSYESPLTFGGGTKVEIK | 0.337 OD
371_F11 (antibody, V domains shown) VH: EVQLLESGGGLVQPGGSLRLSCAASGFTFSSYSMNWVRQAPGKGLEWVSGINYNGGYTSYADSVKGRFTISRDNSKNTLYLQMNSLRAEDTAVYYCARGANWHDTALDYWGQGTLVTVSS VL: DIQMTQSPSSLSASVGDRVTITCRASQSIISYVNWYQQKPGKAPKLLIYAVTSRASGVPSRFSGSGSGTDFTLTISSLQPEDFATYYCQQSYDLPLTFGGGTKVEIK | 0.331 OD
371_B12 (antibody, V domains shown) VH: EVQLLESGGGLVQPGGSLRLSCAASGFTFSDYSMNWVRQAPGKGLEWVAGINYNSGYTSYADSVKGRFTISRDNSKNTLYLQMNSLRAEDTAVYYCARGANWHDTALDYWGQGTLVTVSS VL: DIQMTQSPSSLSASVGDRVTITCRASQSIVTYLNWYQQKPGKAPKLVIYAATSRHSGVPSRFSGSGSGTDFTLTISSLQPEDFATYYCQQSYNNPLTFGGGTKVEIK | 0.378 OD
371_E06 (antibody, V domains shown) VH: EVQLLESGGGLVQPGGSLRLSCAASGFTFSSYSMNWVRQAPGKGLEWVSGINYNGGYTSYADSVKGRFTISRDNSKNTLYLQMNSLRAEDTAVYYCARGANWHDTALDYWGQGTLVTVSS VL: DIQMTQSPSSLSASVGDRVTITCRASQSISTYLNWYQQKPGKAPKLLIYAVTSLHSGVPSRFSGSGSGTDFTLTISSLQPEDFATYYCQQSYESPLTFGGGTKVEIK | 0.33 OD
371_C01 (antibody, V domains shown) VH: EVQLLESGGGLVQPGGSLRLSCAASGFTFSSYGMHWVRQAPGKGLEWVSSINYNGGYTGYADSVKGRFTISRDNSKNTLYLQMNSLRAEDTAVYYCARGANWHDTHLDYWGQGTLVTVSS VL: DIQMTQSPSSLSASVGDRVTITCRASQSIVSYLNWYQQKPGKAPKLLIYAATSRHSGVPSRFSGSGSGTDFTLTISSLQPEDFATYYCQQSYDNPLTFGGGTKVEIK | 0.402 OD
